The DeepSol protein solubility set

Assay: soluble on expression in E. coli; label from the status in PepcDB or PDB records

Soluble on expression in E. coli, not soluble:
MGSDKIHHHHHHMSSHQLPFQRSDEEVQASSGDSLTIARKQEVVQLLKQISDRTLKNDIISLGMVRNLRIVDDYIYLRLYIGSHQHQLETEIQTVLSSLTWSKKTYIQLCTIPGVRTTLAVSSGKGGVGKSTTAVNLAAALQLAGAKVGLLDADVYGPNVPQMLGLGKSEVKVIDTPKGQRFVPLEAHGIKVMSVGLLAEADHPLAWRGPVLHKIITQFIHEVEWGELDYLLIDLPPGTGDAQITIVQESPICGVILVTTPQNVAISDVRRSVYMFRQVGVPVIEIIENMSYFIGNGGEKISIFGSGGGQKLVEELKAPLLGQIPIDPLICNGGDVGEPLMLVDPNSKASQVFVQIAGALNATFSGSM, MGSDKIHHHHHHMSSIFSLEGIKALGPDELREIQRGGLPVVIHFGDAGDDFLAYVSDHATEWLGTDAIRTVDARRFMEDKEWKAPMLTSEVLPKTIIVDPARWGDSFADKVAALDMTAFYSSNPVLLDYNDAFEVVFLFSTFYHHTMVSVTDFCNLRCRGCSFHGDDSRYDFAASRGKTERQELKEEDYYLFLDQRKPGDDLLFCGTGELFVSKKAMPYIREAIRRGLHVRILTNGMLVDDKVARELVELGVGAVLFSIDGHTKEIVESIRLGADYDRILANLRNLMRVRDEAGSGMIIGVQSGWFDEVKTRKDEILEFWKEFGIDTFSFFAEQVGWFQCIPMHEDKVMPVKTHACFNSLITPVLMTNGYVAPCTGNYQAEWSSLSSSWMKHISEAPFDEIIRYYRKMRTDPASPYRQRCAMCIGRLSTYVNSEYVSAYAEGYRFSERKSDKEAAFVKFSPQDEKTGFTLKKLWNRLLRR, MGSDKIHHHHHHMSSNSRVYGIVPSKRLGRSLGVSPIPFKTCTYSCVYCQLGRTTNFTVKRQTFFPLKVFEEELKGFVKRHRYDFDVVSIVGEGEPTLYTPLDALIDLCKSITGKPVVLITNGSLFWSEKVRKEAKLSDIIMPTLSAWDEKSFRTIHKPHKNLSFQKVFEGLKKFRREYSGEIWLEVMLVKGLNDFALEELKEKISQVESDRVYVNVPVRPPAEGWVEPPDEETIEKAKELFNAASIETPAASRFIAAGEGIDAVLNVIKRHPMNEEEVRDLLTSQKIDPKPVLEKLRSCKNVKIIEYSGRRYYRYTTAE, MGSDKIHHHHHHMSSSAKPLPTIERPREDASGRARVPGWVIGIDLGGTKILAGIARTQEQIIATREEPTLHGEDAPVLAQMARLITSLLSDAGALAQELDNVVIGVPSAVDPQTGLSSLSPNLALPVDRPLADLMSRFVSCPVTVENDVNLAAYGEAWAGAGQGLGSLVFVSFGTGVGMGIVLDGEPWRGAAGRAGEIAYLPVGAAPHETAPLSENGLYEDGVGTSGIRQRFTRDGGTVAELFSLARSGNEQARLAIDSVAKQASIGIAAVHALLDPAVTVIGGGIGSQPEFFTLLQAHLQPLLPFESPLKQSRLGVQAGMIGAVALALKNRVPHPEKSNAENL, MGSDKIHHHHHHMSSSGYVPDNKNLKKSSGTPNLFFDSRKNIFFKRDEKNVAYEVTSTQLPAMIGGAFVDLFMTKGHMREPHWHPNAWELDVVVSGEAVTSILNPETNQLQNYHMKAGQTVFIPMGWWHWITAVTEEVQLHLFFNNDQFETAEGSDILRLTPPEVFQAAYGVSAEKLGKDLSPIKESVVIGPPNLNRIKGVKESDDSNIVVTLNGQITSCEIE, MGSDKIHHHHHHMSSTHTGIEWTDKTWNPTTGCDKVSPGCRYCYAEALTERFPQSFPTGFKLNLHPERLEQPKRWRTPSRIFVNSMSDLFHEDVPFSFLQEIFSIMRETPWHIYQILTKREENLVDLAPKLEWTENIWMGVSVESQRYTYRIDALRKVPAAVRFLSCEPLLESLNLDLQNIDWVIVGGESGYNHRPVKPEWIREILQQTREAEVAFFFKQWGGKHSKAGGRMLDDHTWEEMPKAWRKHIIKWQKKFHGQPKLHELEQKYLMSTK, MGSDKIHHHHHHMSTDKLAIIAVTERGRDLAITLTKTVAATIFVPEKHCTEQTNSLTPDFGTAMREIFTKYQALICIMATGIAVRTLAPVIEDKLSDPAVLVMDEHGKFIISLLSGHVGGANELTERIATITGGAAVITTATDRANVAAIDNIAKQLNGYLPDFKATTKRINGLLAAGKEVGLYIDEPLEIDTRGFTMEEVSPQVYISTKYKLQVATHERIQLVPKQFILGVGCRKGVSAETIDAAFTHFCEQENIHPRAFREIHSITLKAEEPAILHLAEKWHVPFIVHPAEELQTVAGKYPTSAFVQKTVQVGNVALSSADIGSNGNVVTSRFAENGVTFAAGKLTKNSEVAK, MGSDKIHHHHHHMSTNTTSHSTTHSTISSQAVVIKQADFIESIADSLQYISYYHPKDFVDAMTKAYEREESAAAKDAIAQILINSRMSAEGKRPLCQDTGIVTTFVKIGMSVQWDKTDMTVQEMVDEGVRRAYTNPDNPLRASIVSDPAGARKNTKDNTPSVVHIDMVAGNQIEVMIAAKGGGSENKSKMAMLNPSDDIAAWVEKTLPTMGAGWCPPGMLGIGIGGTAEKAAVLAKESLMDPVDIHELMARGAETTEEKLRLDIFERANNLGIGAQGLGGLTTVLDVKIKSVPTHAASKPVVMIPNCAATRHVHFHLDGTGPVDLVPPSLSDWPEITREAGENTHRVNLDTVTQAEIETWKSGDTLLLNGKMLTGRDAAHKRIQMLLESGEGLPAGVDFTGKFIYYVGPVDPVGDEVVGPAGPTTATRMDKFTDMMLDQTGLMGMIGKSERGPETVASIKKHKAVYLMAVGGAAYLVSKAIKKSRVVAFEDLGMEAIYEFDVQDMPVTVAVDTNGVNAHETGPAIWKINIANSKANK, MGSDKIHHHHHHMSTTASIENIDYWRHPSLSGIELSQAEFTHFSFDKHVHLDYHLGVVTQGAQQFVNKGSYYQLGQHSLSTLNPDDTHDGQSRDAEGYRVKVMSIPVEYMNEVSQELGLKEHFFSAPMVDDALLYHYFIHLHELLIQGQVTALASESHLFNFIQLLLRRHPSGILKCNSPQGLSTLQLGLVKQRMHDEPWHNTQLETLAGEVNLSKFQFLRQFKQATGMTPHAYLKRVRLELAKKSLCHGTLVADVAQQLGFFDQSHLNKAFKQAFLLSPVQFQRRML, MGSDKIHHHHHHMSWPLDDETASPHFSIRCLEEPMLINADFSRRAIVTPHEYQWVASPQGGVERVMLDRVGAEKARATSIVRYAPGSHFPRHQHPAGEEILVLSGTFSDEGGHYPAGWYLRNPPGSCHQPSSREGAMIFVKLRQMPLHEARRVRVDTRDPAAWRRQNGREVCPLFADDAEQVCLHRMAPNDALVAAQGDGAELLVLTGAVVAEGEIYGRGSWIRVPADDSLHVVAASQGATVYLKTGLPVAIGAEV, MGSDKIHHHHHHMSWRYALKNYVTSPETVNDDTVTYFDDKVSIIRDSFPKSECHLLILPRTMQLSRSHPTKVIDAKFKNEFESYVNSAIDHIFRHFQEKFRIKKSDDDKDPCWDDILKDKNKFVRNFVQVGIHSVPSMANLHIHVISKDFHSVRLKNKKHYNSFNTGFFISWDDLPLNGKNLGTDKEIETTYLKEHDLLCCYCQRNFSNKFSLLKKHLELEFNSHFELK, MGSDKIHHHHHHMTAALPAGSDLVIVLPHLGPGGAQKVALMAAEHFLVQGRQVTLVTLLPDKPLSHAVPEGLRWVDLGPAVAETTSNRAPIARIWRFSCTWGRRSLAWISLVIGWKVLKRLVPGQAPLFVQWLVSSASGVQATLLRDLLYAGKPARVLSLLTRTNLLCCQAMWALPGHLVVSERNDPRLQKQSFPWLRLRSWLWQRADVITANTIGVLEGLQHCHPAMADDMRLLPNPLVVDSHPGNHSDEPASGTCFLAVCRLVPQKGIDLLIQAYAQLPEPLREMWPLLIAGDGPERASLETLASSLLPRGQVRFMGFQRNPQVLYHRDAVFVLSSRFEGMPNSLLEAMGSGLAVIVSDASPGPLEVVVHGKSGWVVPTEKVTLLAEAMQAMAENPALRCRLGDAAAEFMDAYSWDTLDPIWSDILCLEKPG, MGSDKIHHHHHHMTAEDTYKTIVEPSEGIYTEKRSKFIAIALPVRTLDEIKAHLETYQKKYYDARHVCYAYMLGAARKDFRANDNGEPSGTAGKPILGQINSNELTDILIIVVRYFGGIKLGTSGLIVAYKAAAAEAISAATIIEKTVDEEVTVMFEYPFMNDIMRIVKEEEPEILSQSYDMDCSMTLCIRRSMMPKLRARLEKVETARILDEE, MGSDKIHHHHHHMTAFNPIAIIPHYNHSATVGSVAEQLNQLGLPVLIVDDGSSLEHKAVIEQFPQNEQLSILFCEINGGKGAAFKAGLKQTQKLGFSHAIQVDADGQHNIIDVKKMLEQAEKSPNAIVCGKPIYGKDAPKSRLYGRKITDFWNAINTLSFDIKDGMCGFRIYPIAQIMPILAQEQIGGGMDFDTEILIHSYWQKIPLIWVDTPVKYEKDGISHFRGWADNWLISKMHARLFFRMLKRLFTGKIR, MGSDKIHHHHHHMTANPTVFTFADSTDLILEIPDSTTANLDSQLFSHPYSRYQAYLNELCLSAVLPWLQEDFSTQAKVWPSATTLASLWELVNGTAVTIDGKRFILVPSENIDHSELRVQQEWVDLPTWAGDYYLAVQVDGEYVKVWGYCTHTQLKHQGKYDPGDRTYSLDITDIVNDISVLAVARDLCPDEITRTAIAPLPTIPQEQAQNLITRLSNPEIINPRLAIPFQLWGALIEHGGWRQSLYERRLGLPEQRSVLQWLQSGVSQVAQTMGWGRLNLQLSAAGARSVEERQTGVTLSRRLTIAGQLYELLITPQGEPDAPYWRFELRNAAVGAVIPGGFKLRLLTEDLQSFPNNEDIATNAVEQLYVEVALEAGEGIVWEIEPLPENYDREILKF, MGSDKIHHHHHHMTDTTIPNPLAPVKGANTTFWMYNSEGDPFASPLSDNNWLRLANVKDLQPGELTADAEDNNYLDDENADWKSTTQGQKSAGDTSVTLAWKPGEDVQKKLIQLFTTGQKRGFRIKYPNGTVDVFRGWVSSLGKTVQSKDEIARTVKITSVGRPYMAEEDAPEVVSVTGLTVEPTNATVKVGATTAVTFTVKPDNVTDKSLRIATSDPTTATVTQAENIATVKGVKAGTVKIIGMTTDGNFTAIADITVQA, MGSDKIHHHHHHMTEEINYFWLNCGYNRWNHNEPLVGQTALFESGAHFNPTQGYRAFKKAKAGDQVIFYQVQTDSGLLGIGEIISVQSGAQNKIRVEFKFKETLKPLTTDYLKRSETLDFRMSNMRETLFNQIRESEFELIVSLGKGKSKIPRYFLLAETEAFEPGKNYTIFTHTFNGIKRNGYHFYTQLEVGDNIIIYNKYQNQSVIGIGEVSKHIHEKPPIPGRTNSTAIEIFYEKDIKPISLGHLNKHPKLKNLYFLQENAKQSIASMSQAQYDAILDMSMNNGIKHPFETVKKAELSTQNAEDDSLKPFVLLVVEQKGEGLKAAEELLQKTNANPVITSGHPDFTEDMLYGKYLPNESGALYYREGFITHLMPKKDKSYLVIDNFNRIDVDIFQTYINVLEGYEVTLPRYNKDGSMIKWSKNKDSFYHFNPNWHIVGITYDSIEKIKQKYSSQFLKYTRIVKVNHD, MGSDKIHHHHHHMTEILLKELTKSDIDWMITTGNQQELAAGTILIQERGSTEFFHILLDGTFSVTLSQPENNPLTRAFAAIEGEEISGREIGRLSRGEIVGESPLIGTRPPATTITSVEKSLVISIPIRELAAKLQQDVGFAARFYRAIAIIISNRIENTIDQLGRRNLAQSQPLRDVLFILGELHDSDIDWMMASGTPQKIPANTILIHEQGTVDALYILLDGKMSLSISLDERNPLVRAFAAIEGNEISGREIAKLSKGEIIGETPFIDGSLPPTTVKAIEHSVVLSIPRQQLAAKLQQDIGFASRFYRVIASLLDQRLQPMVSQLGYGRRVYSRGESLHEGLEYDDELDINTLDRMAIAGKRFDWMLERLKVS
